One molecule from publication PMC9482650, “Quantitative fragmentomics allow affinity mapping of interactomes” (Nature Communications, 2022) can be followed below.

Holding throughout (experiment): holdup assay
Common to all, as to details: plain residues with an end cap or a label only (N-terminal biotin on a linker: (peg)3)

Assay [1] has as its target T1, SHROOM3, Q8TF72.
T1 sequence (Q8TF72 20-120, limits assumed, looked up): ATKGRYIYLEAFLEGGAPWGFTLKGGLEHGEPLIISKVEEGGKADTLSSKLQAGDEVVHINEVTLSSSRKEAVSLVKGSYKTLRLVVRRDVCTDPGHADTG

Assay [2] has as its target PARD3B_2, Q8TEW8.
The target in assay [3] is DVL2, O14641.
DVL2, O14641, sequence (O14641 260-359): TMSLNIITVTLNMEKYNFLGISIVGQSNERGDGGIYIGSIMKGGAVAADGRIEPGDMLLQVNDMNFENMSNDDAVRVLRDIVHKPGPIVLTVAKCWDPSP
Assay [4] addresses T2, PTPN13_4, Q12923.
T2 sequence (Q12923 1783-1878, limits assumed, looked up): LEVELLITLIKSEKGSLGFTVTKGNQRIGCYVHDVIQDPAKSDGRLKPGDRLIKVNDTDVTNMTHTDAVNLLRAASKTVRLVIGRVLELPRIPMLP

Assay [5] has as its target MAST3, O60307.
The target in assay [6] is T3, MPDZ_2, O75970.
T3 sequence (O75970 252-347, limits assumed, looked up): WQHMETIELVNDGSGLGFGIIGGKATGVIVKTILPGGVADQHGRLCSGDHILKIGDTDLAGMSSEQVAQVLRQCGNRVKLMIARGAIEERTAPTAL

Assay [7] concerns the target T4, MPDZ_3, O75970.
T4 sequence (O75970 372-473, limits assumed, looked up): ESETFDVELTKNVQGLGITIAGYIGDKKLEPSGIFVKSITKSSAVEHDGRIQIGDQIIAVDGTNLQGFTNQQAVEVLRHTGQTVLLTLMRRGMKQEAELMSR

Assay [8] deals with PARD3B_3, Q8TEW8.
PARD3B_3, Q8TEW8, sequence (Q8TEW8 490-594): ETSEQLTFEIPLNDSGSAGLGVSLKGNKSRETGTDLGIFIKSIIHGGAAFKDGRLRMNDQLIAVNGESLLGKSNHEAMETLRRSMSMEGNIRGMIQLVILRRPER
The target of assay [9] is PARD3_1, Q8TEW0.
PARD3_1, Q8TEW0, sequence (Q8TEW0 264-372): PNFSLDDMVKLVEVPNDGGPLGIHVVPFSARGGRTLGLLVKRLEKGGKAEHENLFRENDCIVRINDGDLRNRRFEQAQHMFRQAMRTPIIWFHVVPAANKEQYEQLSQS
In assay [10] the target is T5, MPDZ_13, O75970.
T5 sequence (O75970 1982-2070, limits assumed, looked up): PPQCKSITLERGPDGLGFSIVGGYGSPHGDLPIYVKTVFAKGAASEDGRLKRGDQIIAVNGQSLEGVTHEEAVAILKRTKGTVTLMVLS

Assay [11] addresses T6, SHANK2, Q9UPX8.
T6 sequence (Q9UPX8 621-730, limits assumed, looked up): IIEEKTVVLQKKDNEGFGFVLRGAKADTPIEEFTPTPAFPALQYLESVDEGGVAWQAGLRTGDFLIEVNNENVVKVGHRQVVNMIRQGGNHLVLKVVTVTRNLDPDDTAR

Assay [12] deals with T7, SHROOM4, Q9ULL8.
T7 sequence (Q9ULL8 5-102, limits assumed, looked up): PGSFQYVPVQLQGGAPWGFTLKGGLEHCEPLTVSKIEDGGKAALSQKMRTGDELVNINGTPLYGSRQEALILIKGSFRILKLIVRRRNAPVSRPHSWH

Assay [13] concerns the target T8, CNKSR1, Q969H4.
T8 sequence (Q969H4 191-295, limits assumed, looked up): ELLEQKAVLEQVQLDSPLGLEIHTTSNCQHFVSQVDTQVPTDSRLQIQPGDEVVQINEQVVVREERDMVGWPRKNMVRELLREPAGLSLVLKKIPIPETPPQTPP

The target in assay [14] is T9, GIPC1, O14908.
T9 sequence (O14908 128-223, limits assumed, looked up): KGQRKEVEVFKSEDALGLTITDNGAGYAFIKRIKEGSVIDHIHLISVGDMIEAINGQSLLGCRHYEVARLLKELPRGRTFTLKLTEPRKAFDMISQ

In assay [15] the target is MAGIX, Q9H6Y5.
MAGIX, Q9H6Y5, sequence (Q9H6Y5 118-211): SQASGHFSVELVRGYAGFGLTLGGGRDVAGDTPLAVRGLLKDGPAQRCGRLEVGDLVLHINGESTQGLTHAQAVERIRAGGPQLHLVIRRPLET
Assay [16] addresses RIMS2, Q9UQ26.
The target in assay [17] is CNKSR3, Q6P9H4.
CNKSR3, Q6P9H4, sequence (Q6P9H4 203-303): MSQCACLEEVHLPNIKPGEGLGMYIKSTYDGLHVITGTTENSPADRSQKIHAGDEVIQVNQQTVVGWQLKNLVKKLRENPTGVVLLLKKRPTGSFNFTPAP
For assay [18], the target named is T10, MLLT4, P55196.
T10 sequence (P55196 1002-1103, limits assumed, looked up): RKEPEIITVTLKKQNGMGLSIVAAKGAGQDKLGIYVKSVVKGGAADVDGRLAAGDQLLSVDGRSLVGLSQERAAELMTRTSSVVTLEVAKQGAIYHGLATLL

The target of assay [19] is PTPN13_2, Q12923.
PTPN13_2, Q12923, sequence (Q12923 1363-1462): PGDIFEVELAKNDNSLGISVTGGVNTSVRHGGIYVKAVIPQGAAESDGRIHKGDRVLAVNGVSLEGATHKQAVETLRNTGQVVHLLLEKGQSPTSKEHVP
In assay [20] the target is T11, USH1C_3, Q9Y6N9.
T11 sequence (Q9Y6N9 447-547, limits assumed, looked up): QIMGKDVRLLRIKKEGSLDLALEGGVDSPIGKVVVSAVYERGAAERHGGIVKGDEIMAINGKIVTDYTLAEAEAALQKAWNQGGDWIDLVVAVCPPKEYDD

The target of assay [21] is T12, LNX2_4, Q8N448.
T12 sequence (Q8N448 595-690, limits assumed, looked up): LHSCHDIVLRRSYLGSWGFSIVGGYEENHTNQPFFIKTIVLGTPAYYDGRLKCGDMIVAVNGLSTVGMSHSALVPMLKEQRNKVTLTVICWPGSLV

The target in assay [22] is NHERF4_2, Q86UT5.
NHERF4_2, Q86UT5, sequence (Q86UT5 220-308): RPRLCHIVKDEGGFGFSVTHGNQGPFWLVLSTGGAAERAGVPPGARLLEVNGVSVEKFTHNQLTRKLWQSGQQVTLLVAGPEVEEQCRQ
The target of assay [23] is CARD14, Q9BXL6.
CARD14, Q9BXL6, sequence (Q9BXL6 558-663): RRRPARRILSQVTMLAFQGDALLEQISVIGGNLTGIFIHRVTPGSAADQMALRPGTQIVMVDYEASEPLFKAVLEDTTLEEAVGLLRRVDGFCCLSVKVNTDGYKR
The target in assay [24] is TJP1_1, Q07157.
TJP1_1, Q07157, sequence (Q07157 18-120): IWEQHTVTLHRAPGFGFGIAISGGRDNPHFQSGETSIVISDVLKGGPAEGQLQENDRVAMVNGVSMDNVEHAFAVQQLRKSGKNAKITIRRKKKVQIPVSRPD

PARD3B_2, Q8TEW8, sequence (Q8TEW8 376-471): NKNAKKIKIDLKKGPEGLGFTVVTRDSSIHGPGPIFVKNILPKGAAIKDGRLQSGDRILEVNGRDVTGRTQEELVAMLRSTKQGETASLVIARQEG
RIMS2, Q9UQ26, sequence (Q9UQ26 637-758): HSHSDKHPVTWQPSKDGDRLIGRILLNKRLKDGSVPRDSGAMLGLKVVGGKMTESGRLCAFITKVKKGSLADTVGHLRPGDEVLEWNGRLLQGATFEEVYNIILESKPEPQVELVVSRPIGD
MAST3, O60307, sequence (O60307 945-1048): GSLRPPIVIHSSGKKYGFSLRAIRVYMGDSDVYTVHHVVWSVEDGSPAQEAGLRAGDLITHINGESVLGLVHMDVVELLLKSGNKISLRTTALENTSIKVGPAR

B1: SARS-Cov2-N, P0DTC9 (peptide)
chain: QQSMSSADSTQA
For B1, the pKd result in assay [1], in assay [2], in assay [3], in assay [4], in assay [5] and in assay [6] was “below the threshold” each time. Further, the pKd entry in [7], in [8], in [9], in assay [10], in assay [11] and in [12] was “below the threshold” each time. Besides, the pKd (commonly −log10 of the Kd, conventionally taken in molar units) is “below the threshold” in assay [13]; 4.46 in assay [14]; “below the threshold” in assay [15]; “below the threshold” in [16]; “below the threshold” in assay [17]; “below the threshold” in [18]. Further, the pKd result in [19], in [20], in [21], in assay [22], in assay [23] and in assay [24] was “below the threshold” in each case.
